From patent US20230357414A1 (SYNTHEKINE, published 2023)
Where a chain is given by its changes, count along the chain named.

T1: extracellular domain of mouse IL12Rb2 (614 amino acids, amino acids 24-637 of the mIL12Rb2 precursor, UniProt … (mouse, UniProt P97378 24-637))
T1 construct: also called mIL12Rb2 ECD; mIL12Rb2 ECD antigen
T1 sequence: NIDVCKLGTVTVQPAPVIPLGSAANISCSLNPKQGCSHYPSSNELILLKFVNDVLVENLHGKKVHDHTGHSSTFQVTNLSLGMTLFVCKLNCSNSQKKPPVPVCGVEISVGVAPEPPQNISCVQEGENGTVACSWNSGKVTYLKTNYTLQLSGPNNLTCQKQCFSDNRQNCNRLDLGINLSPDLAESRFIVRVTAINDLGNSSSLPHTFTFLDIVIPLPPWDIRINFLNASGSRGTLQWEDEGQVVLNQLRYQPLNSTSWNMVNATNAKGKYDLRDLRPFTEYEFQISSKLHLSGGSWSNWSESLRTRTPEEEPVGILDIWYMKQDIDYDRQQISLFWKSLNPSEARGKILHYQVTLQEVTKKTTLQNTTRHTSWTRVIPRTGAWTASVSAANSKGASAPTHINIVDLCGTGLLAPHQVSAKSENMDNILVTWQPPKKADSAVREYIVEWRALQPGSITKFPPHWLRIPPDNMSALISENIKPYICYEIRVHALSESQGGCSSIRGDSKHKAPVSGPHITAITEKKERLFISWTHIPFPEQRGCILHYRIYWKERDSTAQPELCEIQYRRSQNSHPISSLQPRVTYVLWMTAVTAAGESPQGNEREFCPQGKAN

B1: mIL12Rb2 VHH10 (VHH)
VHH: QVQLQESGGGSVQAGGSLRLSCAASGYTFSNHHMGWFRQAPGKEREGVAAIYTGAGNIYYADSVKDRFTISKDTAKNTLYLQMNSLTPEDTGMYYCAADLTRWYSGGWRDPRGYKYWGQGTQVTVSS
notes: Camel VHH, tested as a periplasmic extract of a phage clone; also called anti-mouse IL12Rb2 VHH10; not shown: HA/His tag encoded by the pMECS phagemid
B2: mIL12Rb2 VHH12 (VHH)
VHH: B1 VHH with S11V, A14P
notes: Camel VHH, tested as a periplasmic extract of a phage clone; also called anti-mouse IL12Rb2 VHH12; not shown: HA/His tag encoded by the pMECS phagemid
B3: mIL12Rb2 VHH13 (VHH)
VHH: B1 VHH with A24V
notes: Camel VHH, tested as a periplasmic extract of a phage clone; also called anti-mouse IL12Rb2 VHH13; not shown: HA/His tag encoded by the pMECS phagemid
B4: mIL12Rb2 VHH11 (VHH)
VHH: B1 VHH with S11P
notes: Camel VHH, tested as a periplasmic extract of a phage clone; also called anti-mouse IL12Rb2 VHH11; not shown: HA/His tag encoded by the pMECS phagemid
B5: mIL12Rb2 VHH15 (VHH)
VHH: QVQLQESGGGSVQDGGSLRLSCAASGDIYARNCMGWFRQAPGKEREKIAVADTGGRSPYYADSVKGRFTISRDNAKNTVDLQMNSLKPEDTAVYYCAAGPLVPVVNTAARCVYEYWGQGTQVTVSS
notes: Camel VHH, tested as a periplasmic extract of a phage clone; also called anti-mouse IL12Rb2 VHH15; not shown: HA/His tag encoded by the pMECS phagemid
B6: mIL12Rb2 VHH14 (VHH)
VHH: QVQLQESGGGSVQAGGSLRLSCAASGATNSNRHMGWFRQAPGKEREGVAAIYTGYTGGGNTYYADSVRDRFTISQDNAKNTLYLQMNSLTPEDTAMYYCAADLTRWYSGGWRDPRGYKYWGQGTQVTVSS
notes: Camel VHH, tested as a periplasmic extract of a phage clone; also called anti-mouse IL12Rb2 VHH14; not shown: HA/His tag encoded by the pMECS phagemid
B7: mIL12Rb2 VHH16 (VHH)
VHH: B6 VHH with R68K
notes: Camel VHH, tested as a periplasmic extract of a phage clone; also called anti-mouse IL12Rb2 VHH16; not shown: HA/His tag encoded by the pMECS phagemid
B8: mIL12Rb2 VHH2 (VHH)
VHH: QVQLQESGGGSVQAGGSLRLSCAASGVTYGSYYMAAWFRQAPGKEREGVASIYGGSDSTYYADSVLGRFTISQDNGKNTLYLQMNSLKPDDTAMYYCAAAPPGKWFLKRLEGHNYSYWGQGTQVTVSS
notes: Camel VHH, tested as a periplasmic extract of a phage clone; also called anti-mouse IL12Rb2 VHH2; not shown: HA/His tag encoded by the pMECS phagemid
B9: mIL12Rb2 VHH6 (VHH)
VHH: QVQLQESGGGSVQAGGSLRLSCAVSGKAYGGAWFRQAQGKGREGVAAIWIGTGTTFYADSVKGRFTISRDNAKNTVYLQMDGLKPEDTAVYYCAADDRPGYRDPLAPVSYNHWGQGTQVTVSS
notes: Camel VHH, tested as a periplasmic extract of a phage clone; also called anti-mouse IL12Rb2 VHH6; not shown: HA/His tag encoded by the pMECS phagemid
B10: mIL12Rb2 VHH9 (VHH)
VHH: B9 VHH with R19T, A23V, Y29F, E86D, V90M
notes: Camel VHH, tested as a periplasmic extract of a phage clone; also called anti-mouse IL12Rb2 VHH9; not shown: HA/His tag encoded by the pMECS phagemid
B11: mIL12Rb2 VHH7 (VHH)
VHH: B9 VHH with R19K, K27N, A28P, G41S, I50L, L78V, M80I, V90M
notes: Camel VHH, tested as a periplasmic extract of a phage clone; also called anti-mouse IL12Rb2 VHH7; not shown: HA/His tag encoded by the pMECS phagemid
B12: mIL12Rb2 VHH4 (VHH)
VHH: B9 VHH with A14V, A28L, V90L
notes: Camel VHH, tested as a periplasmic extract of a phage clone; also called anti-mouse IL12Rb2 VHH4; not shown: HA/His tag encoded by the pMECS phagemid
B13: mIL12Rb2 VHH8 (VHH)
VHH: B9 VHH with A23V, G41S, V90M
notes: Camel VHH, tested as a periplasmic extract of a phage clone; also called anti-mouse IL12Rb2 VHH8; not shown: HA/His tag encoded by the pMECS phagemid
B14: mIL12Rb2 VHH1 (VHH)
VHH: QVQLQESGGGSVQAGGSLRLSCAASGYTYSNRHMGWFRQAPGKEREGVAAIYTGGGSTYYADSVKDRFTISQDNAKNTLYLQMNSLTPEDTAMYYCAADLTRWYSGGWRDPRGYKYWGQGTQVTVS
notes: Camel VHH, tested as a periplasmic extract of a phage clone; also called anti-mouse IL12Rb2 VHH1; not shown: HA/His tag encoded by the pMECS phagemid
B15: mIL12Rb2 VHH5 (VHH)
VHH: QVQLQESGGGSVQAGGSLRLSCAASGITYRGVWMGWFRQAPGKEREGVATIYTGSGHTYYADSVKGRFTISQDNAKNTVYLQMNSLKPEDTAMYYCAARTVGGTFYTLAADSFNTWGQGTQVTVSS
notes: Camel VHH, tested as a periplasmic extract of a phage clone; also called anti-mouse IL12Rb2 VHH5; not shown: HA/His tag encoded by the pMECS phagemid

What follows are binders tested against T1, extracellular domain of mouse IL12Rb2 … (assay: periplasmic extract ELISA on antigen-coated plate; positive if A450 at least threefold over PBS-coated control).
Procedure: Upon completion of the biopanning of Example 3, three 96-well plates of individual phage clones were isolated in order to perform periplasmic extract ELISA (PE-ELISA) on IL12Rb2 coated plates to identify positive VHH binders that selectively bound IL12Rb2. A 96-well plate was coated with IL12Rb2 and PBS under the same conditions. Next, wells were blocked at 37° C. for 1 h. Then, 100 μl of extracted antibodies was added to each well and incubated for 1 h. Subsequently, 100 μl of anti-tag polyclonal antibody conjugated to HRP was added to each well and incubated at 37° C. for 1 h. Plates were developed with TMB substrate. The reaction was stopped by the addition of H2SO4. Absorbance at 450 nm was read on a microtiter plate reader. Antibodies with absorbance of the antigen-coated well at least threefold greater than PBS-coated control are VHHs that specifically bind to IL 12Rb2. Positive clones were sequenced, and sequences analyzed to identify unique clonotypes

Binder	binding result
B1	binds
B2	binds
B3	binds
B4	binds
B5	binds
B6	binds
B7	binds
B8	binds
B9	binds
B10	binds
B11	binds
B12	binds
B13	binds
B14	binds
B15	binds
